# Results taken from patent US20030129703A1 (Regeneron, published 2003).
# B1: human Bone Morphogenetic Protein 4 (ligand, UniProt P12644 293-408, looked up)
# chain: SPKHHSQRARKKNKNCRRHSLYVDFSDVGWNDWIVAPPGYQAFYCHGDCPFPLADHLNSTNHAIVQTLVNSVNSSIPKACCVPTELSAISMLYLDEYDKVVLKNYQEMVVEGCGCR
# notes: also called hBMP4; BMP4
# Tests used:
# Fc-tagged human noggin = target: T1, Fc-tagged human noggin (human, UniProt Q13253 28-232); experiment: ELISA on plate-coated hBMP4
# T1 construct: Secreted protein; also called hNG-Fc; not shown: Fc domain of human IgG1 (BspEI-NotI human IgG1 fragment), hinge and Fc
# T1 sequence: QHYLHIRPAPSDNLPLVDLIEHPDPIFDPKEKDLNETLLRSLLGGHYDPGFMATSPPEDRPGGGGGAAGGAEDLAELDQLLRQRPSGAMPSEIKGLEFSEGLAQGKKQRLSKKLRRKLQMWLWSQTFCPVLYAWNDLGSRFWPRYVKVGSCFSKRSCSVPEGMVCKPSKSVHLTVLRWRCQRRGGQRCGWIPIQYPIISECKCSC
# Description: Unbound hBMP4 was removed by washing four times with PBS, and the plates were blocked with 1% BSA in PBS. […] After a 1 hour incubation unbound anti-Fc●AP was removed by washing four times with TBS+0.1% Tween and then Alkaline Phosphatase substrate (para-nitrophenyl phosphate; Sigma) was added. Alkaline Phosphatase converts this substrate to a product whose production can be monitored by measuring Absorbance at 405 nm.
# To determine if this hNG mutein was active, its ability to bind to hBMP4 was compared with that of hNG-Fc, which binds human Bone Morphogenetic Protein 4 (hBMP4) with affinity essentially identical to that of untagged hNG. An ELISA format assay where hBMP4 is captured on the surface of an ELISA plate was used to compare the two proteins.
# hNGΔ133-179Fc = target: T2, hNGΔ133-179Fc (human, UniProt Q13253 28-232); experiment: binding to BMP4; assay not detailed
# T2 construct: not shown: peptide bridge to the Fc; Fc domain of human IgG1
# T2 sequence: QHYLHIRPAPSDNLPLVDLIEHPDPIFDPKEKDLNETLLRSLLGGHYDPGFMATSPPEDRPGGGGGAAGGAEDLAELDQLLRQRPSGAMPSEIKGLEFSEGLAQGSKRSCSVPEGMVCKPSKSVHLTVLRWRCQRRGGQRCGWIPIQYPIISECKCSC
binder,measurement,setting,value
B1,binding result,Fc-tagged human noggin,binds
same,binding result,hNGΔ133-179Fc,no binding
